Two molecules from article PMC8699947, “Study of ALDH from Thermus thermophilus—Expression, Purification and Characterisation of the Non-Substrate Specific, Thermophilic Enzyme Displaying Both Dehydrogenase and Esterase Activity” (Cells, 2021) can be followed below.

The target of data set [1] is ALDHTt, aldehyde dehydrogenase from Thermus thermophilus (Thermus thermophilus). Briefly: SEC; HiLoad 16/60 Superdex 200 pg, 50 mM Tris-HCl pH 7.5, 5 mM β-mercaptoethanol, 150 mM NaCl, flow rate 1 mL/min; last step of the purification; no calibration told.
Substrate in data set [2]: CCCCCC=O
Briefly: purified protein. Conditions: 2 mM NAD+, 10 mM potassium phosphate pH 8, 50 °C.

Substrate in data set [3]: NC(=O)c1ccc[n+]([C@@H]2O[C@H](COP(=O)(O)OP(=O)(O)OC[C@H]3O[C@@H](n4cnc5c(N)ncnc54)[C@H](O)[C@@H]3O)[C@@H](O)[C@H]2O)c1
Briefly: purified protein. The format is biochemical, Thermus thermophilus. The settings on record: 2 mM hexanal, 10 mM potassium phosphate pH 8, 50 °C, varied: cofactor.

Substrate in data set [4]: O=Cc1ccc(C=O)cc1
Briefly: purified protein. The format is biochemical, Thermus thermophilus. The settings on record: 2 mM NAD+, 10 mM potassium phosphate pH 8, 50 °C.

Substrate in data set [5]: O=Cc1ccccc1
Briefly: purified protein. The data set is classed as biochemical, Thermus thermophilus. The settings on record: 2 mM NAD+, 10 mM potassium phosphate pH 8, 50 °C.

“ALDHTt, aldehyde dehydrogenase from Thermus thermophilus (enzyme)”: the stoichiometry N in data set [1] was found to be 4.

B1: ALDHTt (Thermus thermophilus HB27) (protein)
chain: MRKAAGKYGNTLEFGHLVGGEEVLEGPLLERRNPSDREDVVARFPEADKDLVRKAALKAREAFAEWSRTPAPIRGQVLFNLVKILEREKPTLTRLMVREVGKTPKEAAGDVQEAIDTALFFASEGRRLYGQTVPSEMRDKELFTFRRPLGVVGIITAGNFPIAVPSWKLIPAVLTGNTVVWKPSEDAPTLSFVFAKLFEEAGLPPGVLNVVFGGGKGSTGQWMVELMDEGLFQKFAFTGSTQVGRWIGEVAGRNLIRPTLELGGKNPLVVMRDADLDLAVEGAWWSAFATGGQRCTSAGNILVDAPIYEEFKRRFLERVEATLVGNPLLHPEVTYGPFINERFFARWQEHYRVGEAEGARLLFGRGRITRENPYPRFLGDPEAGLYGWPTVWEVRPGTRLFTEEVFGPTINLVKVDGIEEAIAVANSTPYGLSSAIYTNHRHWAYLFKVGIRAGMTSINNATVGAEAHLPFGGVKASGNGGRESGIWVLEEYTYWHAVNEEYSGRLQLAQMDTGYVSPKAPTPWGEVLGL
notes: full-length, his-tagged (pET-22b(+)-ALDHTt), E. coli BL21(DE3); homotetramer with C-terminal tail
In the case of B1, the Km is 990 ± 240 µM in the data set “purified protein [2]”, 9.2 µM in “purified protein [3]”, 380 ± 110 µM in “purified protein [4]” and 1520 ± 510 µM in “purified protein [5]”. In addition, the maximum rate (Vmax) in the data set “purified protein [2]” is 0.027 µmol/min; in the data set “purified protein [4]”, 0.047 µmol/min; in “purified protein [5]”, 0.0057 µmol/min. The kcat in the data set “purified protein [2]” is 5.71 s⁻¹; in “purified protein [4]”, 12.1 ± 2.5 s⁻¹; in the data set “purified protein [5]”, 1.46 ± 0.29 s⁻¹.
